In paper PMC2897766:

Columns and labels:
[1] = biological target: Ire1^bipless, GFP- and mCherry-tagged copies (FRET pair) (yeast) (UniProt P32361); assay: FRET or BRET; microscopy-based FRET (spinning disc confocal) between GFP- and mCherry-tagged copies co-expressed in live yeast cells; cells treated with 5 mM DTT for 4 h (for Ire1^bipless only 'in the presence of DTT' is printed)
[2] = biological target: Ire1^bipless, GFP- and mCherry-tagged copies (FRET pair) (yeast) (UniProt P32361); assay: FRET or BRET; microscopy-based FRET (spinning disc confocal) between GFP- and mCherry-tagged copies co-expressed in live yeast cells; untreated cells (no DTT)

- FRET signal [1]: 0.71 a.u.
- FRET signal [2]: 0.17 a.u.
Substance: Ire1^bipless, GFP- and mCherry-tagged copies (FRET pair) (from UniProt P32361 19-474; P32361 527-1115) (natural protein)
